Results taken from the nanobody polyreactivity screen of Harvey et al. (2022).

Test: yeast display, Sf9 membrane polyspecificity reagent, FACS + sequencing; frameworks hold sequencing errors
How it was run: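 A nanobody's polyreactivity label depends on the gate it was sorted from. Yeast display cells were stained with 10% biotinylated, detergent-solubilized Sf9 membrane reagent for 1 hour at 4 °C, enriched on streptavidin microbeads and sorted by FACS. The low and high (top ~1%) gates were set on anti-HA fluorescence for expression and streptavidin fluorescence for reagent binding.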

Sequence | polyreactivity (PSR sort gate)
QVQLVESGGGLVQAGGRLRLSCSASGSIFVTYDMGWYRQAPGKERELVAGISGSGSTNYADSVKGRFTISRDNAKNTVYLQMNSLKPEDTAVYYCAAEYEYLWSQYLTDYGYDYWGQGTQVTVSS | low polyreactivity
QVQLVESGGGLVQAGGSLRLSCAASGRTFSYYAMGWYRQAHGKERELVAAITSSGGRTTYADSVKGRFTISRDNAKNTVYLQMNSLKPEDTAVYYCNVVRWTLKYGYWGQGTQVTVSS | high polyreactivity
QVKLVESGGGLVQAGGSLRLTCAASGIIFSWYAMGWYRQAPGKERELVAAISWSGGRTYYADSVKGRFTISRDNAKNSFYLQMNSLKPEDTAVYYCAAERNLFSHWEARYFWGQGTQVTVSS | high polyreactivity
QLQLVESGGGLVQAGGSLRLSCAASGSNISYYAMGWSRQAPGKERELVAAISKRGASTYYADSVKGRFTISRDKAKNTVFLQMNSLKPEDTAVYYCAAYRQGSAYDYWGQGTQVTVSS | high polyreactivity
QVQLVESGGGLVQAGGSLRLSCAASGLTFYYYVMGWYRQAPGKERELVAAISKSGGRTYYADSVKGRFTISRDNAKNTVYLQMNSLKPEDSAVYYCAAMYTPNYTAYDSWGQGTQVTVSS | high polyreactivity
QVQLVDSGGGLVQAGGSLRLSCAASGLTITVYVMGWYRQAPGKERELVAAIDWSGGSTYYADSVKGRFTISRDNAKNTVYLQMNSLKPEDTAVYYCASETTDYAYYGFTYDYWGQGTQVTVSS | low polyreactivity
QVQLEESGGGLVQAGGSLRLSCAASGITFFWNAMGWYRQAPGTERELVAVISSGGSTKYSDSVKGRFTISRDNAKNTVYLQMNSLKPEDTAVYYCAAAVRVGTRQYGYWGQGTQVTVSS | high polyreactivity
QVQLVESGGGLVQAGGSLRLSCAASGRIFSGYTMGWYRQAPGKERELVAAITRSGGSTYYADSVKGRFTISRDNAKNTVYLQMNSLKPEDTAVYYCNKVSYRRMDSWGQGTQVTVSS | high polyreactivity
QVQLVESGGGLVQAGGSLRLSCAASGRIFYDNAMGWYRQAPGKERELVAAISYSGDSTYYADSVKGRFTISRDNAKNTVYLQMNSLKPEDTAVYYCAAVYISQGAFAYDYWGQGTQVTVSS | low polyreactivity
QVQLVESGGGLVQAGGSLRLSCAASGFTFYYNAMGWYRQAPGKERELVAAMSGRGGSTHYADSVKGRFTISRDNAKNTVYLQMNSLKPEDTAVYYCNKVVRGSPEFDYWGQGTQVTVSS | high polyreactivity
QDQLVESGGGLVQAGGSLRLICAASGSIFDFYTMGWYRQAPGKERELVAAITYSGGRTYYADSVKGRFTISRDNAKNTVYLQMNSLKPEDTAVYYCAASTGSSAYDDYWGQGTQVTVSS | high polyreactivity
QVQLVESGGGLVQAGGSLRLICAASGRSFQYYVMGWYSQAPGKEWELVAAMNRRGTSTYYADSVKGRFTISRDNAKNTVYLQMNSLKPEDTAVYYCAAVDRDYARTTTYDYWGQGTQVSVSS | high polyreactivity
QVQRVESGGGLVQAGGSLRLSCAASGSIFGPYAMVWYRQAPGKERELVAAITWSVGSTYYADSVKGRFTISRDNAKTTVYLQMNSLKPEDTAVYYCNAGVLGVYTSYNGDDYWGQGTQVTVSS | low polyreactivity
QVQLVESGGGLVQAGGSLRLSCAASGFIFSVYAMGWYRQAPGKERELVAAITESGGSTYYADSVKGRFTISRDNAKNSVYLQMNSLKPEDTAVYYCAAAIRPYEYEYWGQGTQVTVSS | low polyreactivity
QVQLVESGGGLVQAGGSLRLSCAASGSTFAPYAMGWYRQAPGTERELVAALTTGGSTNYADYVKGRFTISRDNATNTVYLQMNSLKPEDTAVYYCNAEYGGGVDGTYKYYSEYDYWGQGTQVTVSS | low polyreactivity
QVQIGQSGGGLVQAGGSLRLSCAASGRIIWSNAMGWNRQAPGKERELVAAIRNTGSTNYADSVKGRFTISRDNAKNTVYLQMNSLKPEDTEVYYCAADRATYCTYAYGYWGQGTQVTVSS | high polyreactivity

Sequence | polyreactivity (PSR sort gate)
QVQLVESGGGLVQAGGSLRLSCAASRSIFYSYALGWSRQAPGKEREWVADITITGSTYYADSVKGRFTISRDNAKNTVYLQMKSLKSEDTAVYFCNAVLAPGGYAYWGQGTQVTVSS | low polyreactivity
QVQLVESGGGLVQAGGSLRLSCAASGIIFSWYAMGWYRQAPGKERELVASITIGGNTNYADSVKGRFTISRDNAKNTVYLQMNSLKPEDTAVYYCAAQTFWYGYGGGDYWGEGTQVTVSS | low polyreactivity
QVQLVESGGGLVQAGGSLRLSCAASGRTFGWYAMGWYRQAPGKEREFVAVISRSGTNTYYADSVKGRFTISRDNAKNTVYLQMNSLKPEDTAVYYCATYWSLSQSRQGDYWGQGTQVTVSS | high polyreactivity
QVQLVESGGGLVQAGGSLRLSCAAYGSTLDGNAMGWYRQAPGKERELVAGLDTGGSTYYADSVKGRFTISRDNAKYTVYLQLIRLKPEDTAVYDCAATDREDYDYWGQGTQVTVSS | low polyreactivity
QVQLVESGGGLVQAGGSLRLSCAASGFIFSYYTMGWYRQEPGTERELVADISWSGGSSYYADSVKGRFTISRDNAKNTVYLQMNSLKPEDTAVYYCNAEGWTAFLDQYDYWGQGTQVTVSS | high polyreactivity
QVQLVESGGGLVQAGGSLRLSCAASGLIFDANAMGWYRLAPVKERELVAAITGSGGRTYSADSVKGRFTISRDTANYTVYCQMNCLKPEATGVYYCAASSKRKVLYNYWGQGTQVTVSS | high polyreactivity
QVQLVESGGGIVQAGGSLRLSCAASGSIFITYAMGWYRPAPGKERELVAAIRDSGDRTYYADSVKGRFTISRDNAKNTVYLQMNSLKPEDTAVYYCAARIWTGRGRKLGYGYVYWGQGTQVTVSS | low polyreactivity
QVQLVESGGGLVQAGGSLRLSCAASGFTFVSYAMGWYRQAPGKERELVAAISKRGGSTSYADSVKGRFTISRDNAKNTVYLQMNSLKPEDTAVYYCNKRSYAWSPHVDYWGQGTQVTVSS | high polyreactivity
QVQLVESGGGLVQAGGSLRLSCAASGRTFARYAMGWYRQAPGKERELVAAISSSGGSTYYADSVKGRFTISRDNAKNTVYLQMNSLKQEDTAVYYCVTYRNWWYDYWGQGTQVTVSS | high polyreactivity
QVQLVESGGGLVQAGGSLRLSCAASGYTFLRYAMGWYRQAPGKERELVAAISRRGGRTYYADSVKGRFTISRDNAKNTVYLQMNSLKPEDTAVYYCAAVNSTQTIGLMDYWGQGTQVTVSS | high polyreactivity
QVQLVESGGGLVQAGGSLRLSCAASGSIFDDNAMGWYRQAPGKEREMVAAISANDGSTYYADSVKGRFTISRDNAKNTVYLQRNSLNPEDTAVYYCAADVKDYAAQMDSWGQGTQVTVSS | low polyreactivity
QVQLVESGGGLVQAGGRLRISCAASGRTFSHNTMGWYRQAPGKERELVAAITGSGASTYYADSVKGRFTISRDNAKNTVYLQMNSLKPEDTAVDYCAKVSRQSWDEYDTWGQGTQVTVSS | low polyreactivity
QVQLVESGGGLVQAGGSLRLSCAASGRTFKLNAMGWYRKAPGKERELVAGITRTGDSTYYADSVKGRFTISRDNAKNTVYLQMNSLKPEDTAVYYCAAAEWYSMDYWGQGTQVTVSS | low polyreactivity
QVQLVESGGGLVQAGGSLRLSCAASGRILLRNVMGWYRQAPGKERELVAVITRTGITYYADSVMGRFTITRDNAKNTVYLQMTSLKPEDTAVYYCAAGLPKYEHDYWGQGTQVTVSS | low polyreactivity
QVHLVESGGGLVQAGGSLRLSCAASGSIFYINAMGWYRQPPGKDREFVARISWRSGSTSYADSVKGRFTISRDNAKNTVYLQMNSLKPEDTAVYYCNAGVFANDNGGRRDQFTWEYEYWGQGTQVTVSS | low polyreactivity
QVHLVESGGGLVQAGGSLLISCSASGSTFGTNAMGWYRQAPGKERDLVASITWSGGNTNYADSVKGRFTISRDNAKNTVYLQKKSMKPADTAVYYCAAEVFISYGVGGYYSDMDYWGQVTQVTVSS | low polyreactivity
